Measured values published in paper PMC6681757, “Site-specific phosphorylation of myosin binding protein-C coordinates thin and thick filament activation in cardiac muscle” (Proceedings of the National Academy of Sciences of the …, 2019).

Target: T1, myosin S2Δ, the first 126 amino acids of myosin S2 (cardiac myosin)
T1 construct: cardiac myosin heavy chain, S2 domain, first 126 amino acids of S2
Assay: MST; C1mC2 species (or native full-length cMyBP-C) titrated against myosin S2Δ; normalized MST curves; conditions in SI Appendix
Details: both partners purified

B1: C1mC2-S288A monophosphorylated by PKA (C1mC2-S288A-1P) (domain or fragment)
chain: PIGLFLMRPQDGEVTVGGSIVFSARVAGASLLKPPVVKWFKGKWVDLSSKVGQHLQLHDSYDRASKVYLFELHITDAQATSAGGYRCEVSTKDKFDSCNFNLTVHEAIGSGDLDLRSAFRRTSLAGTGRRTADSHEDAGTLDFSSLLKKSSSFRRDSKLEAPAEEDVWEILRQAPPSEYERIAFQHGVTDLRGMLKRLKGMKHDEKKSTAFQKKLEPAYQVNKGHKIRLTVELADPDAEVKWLKNGQEIQMSGRYIFESIGAKRTLTISQCSLADDAAYQCVVGGEKCSTELFVKEP
modifications: one phosphate (monophosphorylated by PKA); the phosphorylated residue is not given
Q: B1 was tested. Which Kd did it give?
A: The Kd was about 20 µM.
